Experimental data as given in patent publication US20260184811A1 (CEREIUS, published 2026).
Substitutions are numbered along the chain they refer to. Where two headings read alike, the source gives them in different places. Values belong to the binder of their own block, whether it stands above or below them.

What was measured:
[1] = target: T1, human HER2 receptor (human, UniProt P04626); assay: ELISA on human HER2 receptor, purified VHH titrated, A450
[2] = target: T1, human HER2 receptor; assay: ELISA specificity panel on ErbB family receptors, VHH titrated, A450
[3] = target: T1, human HER2 receptor; assay: as above; remark: listed apart in the source
[4] = target: T1, human HER2 receptor; assay: as above; remark: listed apart in the source
[5] = target: T1, human HER2 receptor; assay: ELISA on human HER2 receptor, purified VHH titrated, A450; remark: listed apart in the source
[6] = target: T1, human HER2 receptor; assay: as above; remark: listed apart in the source
[7] = target: T1, human HER2 receptor; assay: as above; remark: listed apart in the source
[8] = target: T1, human HER2 receptor; assay: as above; remark: listed apart in the source
[9] = target: T1, human HER2 receptor; assay: as above; remark: listed apart in the source
[10] = target: T1, human HER2 receptor; assay: as above; remark: listed apart in the source
[11] = target: T1, human HER2 receptor; assay: as above; remark: listed apart in the source

EC50 (read off the curve) [1]: ~6 nM
B1: VHH_118 (VHH)
VHH: EVQLVESGGGLVQPGGSLRLSCAASEFTFSNYAMSWVRQAPGKGLEWVSAINWSGGITTYADSVKGRFTISRDNAKNTLHLQMNSLKPEDTAVYYCAKGWGTTTRDTGLLSQGTLVTVSS
notes: also called VHH ID 118

EC50 (read off the curve) [2]: ~1 nM
EC50 (read off the curve) [3]: ~1 nM
EC50 (read off the curve) [4]: ~1 nM
B2: VHH_130 (VHH)
VHH: EVQLVESGGGLVQAGGSLRLSCAASGITFSINTMGWYRQAPGKQRELVALISSIGDTYYADSVRGRFTISRDNAKNTVYLQMNSLKPEDTAVYYCRRFRTAAQGTDYWGQGTQVTVSS
notes: also called VHH ID 130

EC50 (read off the curve) [5]: ~1 nM
B3: VHH_129 (VHH)
VHH: B2 VHH with R64K
notes: also called VHH ID 129

EC50 (read off the curve) [6]: ~1 nM
B4: VHH_134 (VHH)
VHH: B2 VHH with K75R, K86R
notes: also called VHH ID 134

EC50 (read off the curve) [7]: ~3 nM
B5: VHH_107 (VHH)
VHH: QVQLVESGGGLVQPGGSLRLSCAASGSIFSINVMGWYRQAPGMQRQLVAIITSGGSTNYADSVKGRFTVSRDNAKNTLYLRMNSLKPEDTAVYYCATIHVRESTWYYAYWGQGTQVTVSS
notes: also called VHH ID 107

binding result [8]: no binding
B6: VHH_123 (VHH)
VHH: QVQLVESGGGLVQAGGSLRLSCAASGRTFNSYFYTMAWFRQAPGKEREFVARMNWNADSTYHADSVKGRFTISRENTVYLQMNSLEPEDTAVYYCAAKSISAPKYDYWGQGTQVTVSS
notes: also called VHH ID 123

EC50 (read off the curve) [9]: ~6 nM
B7: VHH_108 (VHH)
VHH: QVQLVESGGGLVQAGGSLRLSCAASGRTFSSYAMGWFRQAPGLEREFVAAIARGGVSTGYADSVKGRFAISRDNAKNMVYLQMNSLKPEDTAVYYCATYFWGSPHYWGQGTQVTVSS
notes: also called VHH ID 108

binding result [10]: no binding
B8: VHH_110 (VHH)
VHH: QVQLVESGGGSVQLGGSLRLSCAVSGLGFSALAMGWFRQAPGKERERVAAISRTGGTTYYTDSVKGRFTISRDNGKNMVYLQMNSLKPEDAAVYYCASRYTALLSTTARGYDYWGQGTQVTVSS
notes: also called VHH ID 110

EC50 (read off the curve) [11]: ~10 nM
B9: VHH_109 (VHH)
VHH: QVQLVESGGGLVQPGGSLRLSCEASGFTFDDYGMSWVRQAPGKGLEWVSGITWNGGNPNYADSVKGRFTISRDNAKRTLYLQMNSLKAEDTAVYYCQRGYSRGYMYWGQGTQVTVSS
notes: also called VHH ID 109
